Measurements reported in patent publication US11859229B2, “Polyvinyl alcohol-degrading enzyme and process for producing the same” (Hayashibara Co., Ltd., priority 2017, dated 2024).

What was measured:
Type in all cases: biochemical
[1] = Assay for PVA-oxidizing activity (hydrogen peroxide formation, titanium reagent, A410)
Description: As shown in the above (1), the PVA-degrading enzyme of the present invention has an PVA-oxidizing activity, i.e., an activity of catalyzing the reaction of oxidizing PVA as substrate and forming hydrogen peroxide. For example, the PVA-oxidizing activity can be measured by the following method.
To 0.5 mL of a substrate solution prepared by dissolving PVA (Reagent grade polyvinyl alcohol, polymerization degree: 2,000, Nacalai Tesque Inc., Kyoto, Japan) into 100 mM sodium phosphate buffer (pH 7.0) to give a concentration of 2% (w/v), 15 µL of 2% (w/v) of sodium azide solution was added, and then 0.5 mL of an enzyme solution is further added and reacted with shaking at 27° C. for 60 min. After the 60 min-reaction, the reaction was stopped by mixing 0.32 mL of the reaction mixture to 0.8 mL of a titanium reagent, and the yellow color, produced by reacting hydrogen peroxide formed by the enzyme reaction and the titanium reagent, was measured by measuring the absorbance at 410 nm (A410) as an index. Separately, the enzyme solution was added to the substrate solution, and the resulting mixture is immediately mixed with the titanium reagent. The resulting mixture was similarly measured its color and the value was used as the value at the reaction zero minutes. Then, the amount of the formed hydrogen peroxide is determined and the PVA-oxidizing activity is calculated based on the following formula. It is known that the absorbance at 410 nm (A410) increases by “1” when 3.65 […]mole/mL of hydrogen peroxide is formed. Therefore, in the following Formula 1, the coefficient of “3.65” has been multiplied. One unit of the PVA-oxidizing activity is defined as the amount of enzyme that forms 1 […]mole of hydrogen peroxide per min under the above conditions. Titanium reagent is prepared by diluting 5% titanium sulfate (IV) solution, commercialized by Nacalai Tesque Inc., Kyoto, Japan, 25-fold with 10% (w/w) sulfuric acid.

[2] = Degradation of PVA by PVA-degrading enzyme: time course of viscosity of reaction mixture; details: for Viscosity of reaction mixture: 35° C.
Description: Using the purified enzyme preparation of PVA-A obtained by the method of Experiment 2, the enzyme preparations varying the amount of enzyme were allowed to act on substrate solutions varying in PVA concentration, and the time course of the degradation of PVA was investigated by measuring the reduction of viscosity of the reaction mixture.
PVA as a substrate (Reagent grade polyvinyl alcohol, polymerization degree: 2,000, commercialized by Nacalai Tesque Inc., Kyoto, Japan), 50 mM sodium phosphate buffer (pH 7.0), and the purified enzyme solution of PVA-A dissolved in the same buffer were mixed, and the reaction mixtures (volume: 1 mL) with the final concentration of PVA of 1%, 4% or 10% (w/v), and the amount of PVA-A per 1 g-PVA of 1 (or 1.25), 5 or 10 units as PVA-oxidizing activity was prepared. Then, those reaction mixtures in plastic tubes were reacted with shaking at 160 rpm at 35° C. for 1, 4 or 20 hours. In each PVA concentration, a reaction mixture prepared by substituting the enzyme solution to 50 mM phosphate buffer (pH 7.0) was used as control (the amount of enzyme: zero unit). To viscosity measurement using “DV-II+Pro”, a cone-plate viscometer manufactured by Brookfield, Boston, USA, 0.6 mL of a reaction mixture obtained by reacting under each condition was subjected.

[3] = Detection of β-diketone hydrolyzing activity (acetone from 2,4-pentanedione by gas chromatography); set-up: key: Yes: Acetone, a product by the hydrolysis, was qualitatively detected; details: qualitative
Text: As shown in the above (2), the PVA-degrading enzyme of the present invention has an activity of hydrolyzing […]-diketone, i.e., […]-diketone-hydrolyzing activity. Enzymes having β-diketone-hydrolyzing activity can hydrolyze an oxidized PVA having a […]-diketone structure (i.e., oxidized PVA). Beta-diketone-hydrolyzing activity can be detected by examining the activity of hydrolyzing 2, 4-pentanedione which is a model compound of oxidized PVA having a […]-diketone structure. Acetone and acetic acid are formed when a PVA-degrading enzyme hydrolyzes 2,4-pentanedione. Therefore, for example, […]-diketone-hydrolyzing activity can be detected by the following method using 2,4-pentanedione as a substrate.
2,4-Pentanedione (Reagent grade, commercialized by Wako Pure Chemical Industries Co., Ltd., Osaka, Japan) was added to 50 mM sodium phosphate buffer (pH 7.0) to give a concentration of 0.2% (w/v) to make into a substrate solution. To 1 mL of the substrate solution, 0.2 mL of enzyme solution and 0.8 mL of 50 mM sodium phosphate buffer (pH 7.0) were added and then the mixture was shaken at 27° C. for 3 hours for the reaction. After the reaction, 2 mL of the reaction mixture was withdrawn and put in a glass vial, and then the vial was sealed and heated at 95° C. for 40 min. […]

B1: PVA-A: purified PVA-degrading hybrid enzyme from Pseudomonas sp. VT1B strain, amino acid sequence of SEQ ID NO: 2 (protein, listed as Pseudomonas sp.)
chain: AENWPMFGKNYENTRATSDTQISTANISTLNVVRRTTDGGITGTPTVVDGVAYYSDFSGYVKAVRVSDGVVLWRVRPQTTMLSPSPFVTADTVYVAGNNSYVYALNRANGAVRWTTQIETSPNSRISSSPIVVGNILIIGTGSYQVFLPATPMFRGRVAFLNATTGAILPYSTNMCPSASCGGGISVWSTAAIDESTRTGYIGTGQAYRDPAGPYSDALVAFNIDTGAIRWARQFLANDVYQLGGTLRYDYDVGAAPNLFVANGQRMVGVGGKDGTYRAFNRDTGAPIWNTPVGRGSAIGGVMQSTAYGDGRIYVTSNTSTIGSGRNDPVPATAEASALDAATGAPVWIRQLDAGGFGGVAYANGLMYASTWDGRLRVFNAANGNIVREVQVSPSRGAYVPAPTDGFPNGSAGGPVVYGNRVLMGYGWTWVLNINGGLTTMEATVGGGASQTVTLASSSDTYVQSGTPTTNYAYDVNLLARLADAEGLTRASFLQFPLTAVPAGTITSARLRLYGRHDAPTGTGQSVSVWPGTKTTTWSGPNVTYNNSSTETGVDFYATSSIATATVGITPQYYEWNVTDYVASRRSLGHATFGVAVNSAHQYRVTLNSADNTANRPELVVTVSGGTGSQLPGSCPSGFTARAGVNQGFMHNGVARGFVLNVPANVSTPRPVFVSLTGSVESTNENLGARGGAGALNNDGFLVIGPVRRCAGQDPNGAGTSVNGGTCNQAGTGGWNWNPWNEGRVFAAAGDPWKTAEGPDSQFLEAVVRCVAASYPVDSTRMYLGGISSGATMTHRALLFNSDFWAGGLPLSGEWYVSQDNGTAYPGADEFAARRQAVINNPTKIFQGRVGPLPLPATQSPMIVISMWGGANDIWYCGSTLCADYRPSTQAASNYFSALPNVVHVACSSSHGHQWPTQNRAAFNTWAATTLASHPKGTPASSFVLPPPPAGYSCRVGRYTDHYSGT
For B1, the Specific activity ([1]; PVA-oxidizing activity per mg protein at each purification step) was 3.2 U/mg, the “Total Activity (PVA-oxidizing activity)” value ([1]; at each purification step, from 4 L culture supernatant) was 5.4 U and the “Viscosity of reaction mixture” value ([2]; PVA 1% (w/v), 1.25 U/g-PVA, 0 hour) was 2.7 mPa·s. The “Viscosity of reaction mixture” value ([2]; PVA 1% (w/v), 1.25 U/g-PVA, 1 hour) was 2.3 mPa·s, the “Viscosity of reaction mixture” value ([2]; PVA 1% (w/v), 1.25 U/g-PVA, 4 hours) was 1.7 mPa·s and the “Viscosity of reaction mixture” value ([2]; PVA 1% (w/v), 1.25 U/g-PVA, 20 hours) was 1.4 mPa·s. The “Viscosity of reaction mixture” value ([2]; PVA 1% (w/v), 5 U/g-PVA, 0 hour) was 2.5 mPa·s, the “Viscosity of reaction mixture” value ([2]; PVA 1% (w/v), 5 U/g-PVA, 1 hour) was 1.6 mPa·s and the “Viscosity of reaction mixture” value ([2]; PVA 1% (w/v), 5 U/g-PVA, 4 hours) was 1.3 mPa·s. For the same molecule, the “Viscosity of reaction mixture” value ([2]; PVA 1% (w/v), 5 U/g-PVA, 20 hours) was 1.2 mPa·s, the “Viscosity of reaction mixture” value ([2]; PVA 1% (w/v), 10 U/g-PVA, 0 hour) was 2.7 mPa·s and the “Viscosity of reaction mixture” value ([2]; PVA 1% (w/v), 10 U/g-PVA, 1 hour) was 1.4 mPa·s. The “Viscosity of reaction mixture” value ([2]; PVA 1% (w/v), 10 U/g-PVA, 4 hours) was 1.3 mPa·s, the “Viscosity of reaction mixture” value ([2]; PVA 1% (w/v), 10 U/g-PVA, 20 hours) was 1.2 mPa·s and the “Viscosity of reaction mixture” value ([2]; PVA 4% (w/v), 1 U/g-PVA, 0 hour) was 34.0 mPa·s. For the same molecule, the “Viscosity of reaction mixture” value ([2]; PVA 4% (w/v), 1 U/g-PVA, 1 hour) was 35.6 mPa·s, the “Viscosity of reaction mixture” value ([2]; PVA 4% (w/v), 1 U/g-PVA, 4 hours) was 18.6 mPa·s and the “Viscosity of reaction mixture” value ([2]; PVA 4% (w/v), 1 U/g-PVA, 20 hours) was 6.6 mPa·s. For the same molecule, the “Viscosity of reaction mixture” value ([2]; PVA 4% (w/v), 5 U/g-PVA, 1 hour) was 30.3 mPa·s, the “Viscosity of reaction mixture” value ([2]; PVA 4% (w/v), 5 U/g-PVA, 4 hours) was 11.9 mPa·s and the “Viscosity of reaction mixture” value ([2]; PVA 4% (w/v), 5 U/g-PVA, 20 hours) was 3.7 mPa·s. For the same molecule, the “viscosity after reaction relative to the start of the reaction” value ([2]; PVA 4% (w/v), 5 units, 20 hours) was “about 1/10”, the “Viscosity of reaction mixture” value ([2]; PVA 10% (w/v), 1 U/g-PVA, 0 hour) was 2530 mPa·s and the “Viscosity of reaction mixture” value ([2]; PVA 10% (w/v), 1 U/g-PVA, 1 hour) was 1490 mPa·s. For the same molecule, the “Viscosity of reaction mixture” value ([2]; PVA 10% (w/v), 1 U/g-PVA, 4 hours) was 1550 mPa·s, the “Viscosity of reaction mixture” value ([2]; PVA 10% (w/v), 1 U/g-PVA, 20 hours) was 873 mPa·s and the “Viscosity of reaction mixture” value ([2]; PVA 10% (w/v), 5 U/g-PVA, 1 hour) was 1520 mPa·s. For the same molecule, the “Viscosity of reaction mixture” value ([2]; PVA 10% (w/v), 5 U/g-PVA, 4 hours) was 769 mPa·s, the “Viscosity of reaction mixture” value ([2]; PVA 10% (w/v), 5 U/g-PVA, 20 hours) was 231 mPa·s and the “viscosity after reaction relative to the start of the reaction” value ([2]; PVA 10% (w/v), 5 units per 1 g of PVA, 20 hours) was “about 1/10”. For the same molecule, the “2,4-Pentanedione-Degrading Activity” value [3] was “Yes*”.
